According to paper PMC8913309 (The Journal of Biological Chemistry, 2022):

B1: Plasmodium falciparum phosphoglycerate mutase 1 (PfPGM1), recombinant His6-tagged WT protein (enzyme)
chain: MTTYTLVLLRHGESTWNKENKFTGWTDVPLSEKGEEEAIAAGKYLKEKNFKFDVVYTSVLKRAICTAWNVLKTADLLHVPVVKTWRLNERHYGSLQGLNKSETAKKYGEEQVKIWRRSYDIPPPKLDKEDNRWPGHNVVYKNVPKDALPFTECLKDTVERVLPFWFDHIAPDILANKKVMVAAHGNSLRGLVKHLDNLSEADVLELNIPTGVPLVYELDENLKPIKHYYLLDSEELKKKMDEVANQGKAK
B2: PfPGM1 P163A, recombinant His6-tagged mutant protein (enzyme, Plasmodium falciparum)
chain: MTTYTLVLLRHGESTWNKENKFTGWTDVPLSEKGEEEAIAAGKYLKEKNFKFDVVYTSVLKRAICTAWNVLKTADLLHVPVVKTWRLNERHYGSLQGLNKSETAKKYGEEQVKIWRRSYDIPPPKLDKEDNRWPGHNVVYKNVPKDALPFTECLKDTVERVLAFWFDHIAPDILANKKVMVAAHGNSLRGLVKHLDNLSEADVLELNIPTGVPLVYELDENLKPIKHYYLLDSEELKKKMDEVANQGKAK
B3: PfPGM1 K100R, recombinant His6-tagged mutant protein (enzyme, Plasmodium falciparum)
chain: MTTYTLVLLRHGESTWNKENKFTGWTDVPLSEKGEEEAIAAGKYLKEKNFKFDVVYTSVLKRAICTAWNVLKTADLLHVPVVKTWRLNERHYGSLQGLNRSETAKKYGEEQVKIWRRSYDIPPPKLDKEDNRWPGHNVVYKNVPKDALPFTECLKDTVERVLPFWFDHIAPDILANKKVMVAAHGNSLRGLVKHLDNLSEADVLELNIPTGVPLVYELDENLKPIKHYYLLDSEELKKKMDEVANQGKAK

Target: the molecule itself
Assay: SEC

First: B1
Second: B2
The “stoichiometry N” value of the first is higher: 4 for the first, 2 for the second.

With B3 the “stoichiometry N” value was 4.
